Results from US20060083713A1.

B1: LP-48-FLAG fusion polypeptide (human LP-48 / IL-17C, mature, with the FLAG epitope fused to the native C-terminus) (ligand)
chain: HHDPSLRGHPHSHGTPHCYSAEELPLGQAPPHLLARGAKWGQALPVALVSSLEAASHRGRHERPSATTQCPVLRPEEVLEADTHQRSISPWRYRVDTDEDRYPQKLAFAECLCRGCIDARTGRETAALNSVRLLQSLLVLRRRPCSRDGSGLPTPGAFAFHTEFIHVPVGCTCVLPRSVDYKDDDDK

Tests used:
[1] = biological target: LP-48-FLAG fusion polypeptide (human LP-48 / IL-17C, mature, with the FLAG epitope fused to the native C-terminus) (human) (UniProt Q9P0M4); experiment: HUVEC incubated with 5 ug/ml LP-48, then control antibodies and 125I-protein A (radioimmunoassay)
[2] = biological target: cell surface of HUVEC (human umbilical vein endothelial cells); LP-48 binding partner not identified (human); experiment: HUVEC incubated with 5 ug/ml LP-48; bound LP-48 detected with anti-LP-48 antibodies and 125I-protein A (radioimmunoassay)

Molecule | 125I-Protein A Bound (CPM) [1] [CPM] | 125I-Protein A Bound (CPM) [2] [CPM]
control antibodies to an unrelated protein (antibody) | 317 | 
B1 |  | 5630
